According to article PMC12724015:

Target: peptide derived from subunit 5 of the pertussis toxin (PTX) (…) (Bordetella pertussis)

## Bordetella pertussis DsbA (BperDsbA), mature, oxidized (from UniProt Q7W0K2 28-209) (enzyme)
  fraction of reduced BperDsbA (AMS alkylation, SDS-PAGE, densitometry) after 5, 10 and 30 s of 50 uM oxidized BperDsbA with 50 uM PTX peptide: 90%
